Here are results for 3 substances from paper PMC8698333.

Test [1] addresses human kappa opioid receptor Tango construct (tTA-hKOR) (human) (UniProt P41145).
Test [2] deals with human kappa opioid receptor fused to the alpha7 nicotinic signal peptide and eGFP (pcDNA3.1) (human) (UniProt P41145).
In test [3] the target is human kappa opioid receptor, stably expressed in CHO cells (hKOR-CHO) (human) (UniProt P41145).
Sequence of human kappa opioid receptor, stably expressed in CHO cells (hKOR-CHO) (human) (P41145 whole entry): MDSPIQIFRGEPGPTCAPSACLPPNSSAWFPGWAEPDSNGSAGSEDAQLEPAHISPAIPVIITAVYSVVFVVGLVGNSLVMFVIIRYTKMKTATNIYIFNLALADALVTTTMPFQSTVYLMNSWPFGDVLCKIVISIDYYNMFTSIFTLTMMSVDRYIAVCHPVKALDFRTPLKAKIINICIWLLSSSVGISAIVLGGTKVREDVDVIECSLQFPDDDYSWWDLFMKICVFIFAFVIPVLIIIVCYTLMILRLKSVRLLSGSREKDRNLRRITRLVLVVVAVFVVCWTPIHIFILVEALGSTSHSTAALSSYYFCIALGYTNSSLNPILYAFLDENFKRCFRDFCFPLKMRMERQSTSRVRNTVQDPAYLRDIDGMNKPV

Sequence of human kappa opioid receptor Tango construct (tTA-hKOR) (human) (P41145 whole entry, the tested form may be a part): as the sequence (P41145 whole entry) above
Sequence of human kappa opioid receptor fused to the alpha7 nicotinic signal peptide and eGFP (pcDNA3.1) (human) (P41145 whole entry, the tested form may be a part): as the sequence (P41145 whole entry) above

As to Dynorphin A L5S mutant peptide, the PRESTO-Tango β-arrestin recruitment: fold shift of EC50 against the mean of same day DynA WT controls in test [1] was 13 fold shift. Also, the TRUPATH (BRET) G-protein dissociation, Gα3 subunit: fold shift of EC50 against the mean of same day DynA WT controls in test [2] stood at 7 fold shift.
Take Dynorphin A R6W mutant peptide: the PRESTO-Tango β-arrestin recruitment: fold shift of EC50 against the mean of same day DynA WT controls in test [1] came to 16 fold shift. For the same substance, the TRUPATH (BRET) G-protein dissociation, Gα3 subunit: fold shift of EC50 against the mean of same day DynA WT controls in test [2] was found to be 11 fold shift. Also, in test [3], the EC50 of [35S]GTPγS binding to hKOR-CHO cell membranes (G-protein activation) was found to be 105 nM and the efficacy (maximal [35S]GTPγS binding to hKOR-CHO cell membranes) came to 1240 CPM.
On to Dynorphin A R9C mutant peptide, for which the PRESTO-Tango β-arrestin recruitment: fold shift of EC50 against the mean of same day DynA WT controls in test [1] came out at 5 fold shift. Also, in test [2], the TRUPATH (BRET) G-protein dissociation, Gα3 subunit: fold shift of EC50 against the mean of same day DynA WT controls turned out to be 3 fold shift.
